According to publication PMC8406312, “Reovirus Nonstructural Protein σNS Recruits Viral RNA to Replication Organelles” (mBio, 2021):

B1: reovirus nonstructural protein σNS, wild type, in vitro expressed (natural protein)
chain: MASSLRAAISKIKRDDVGQQVCPNYVMLRSSVTTKVVRNVVEYQIRTGGFFSCLAMLRPLQYAKRERLLGQRNLERISTRDILQTRDLHSLCMPTPDAPMSNHQASTMRELICSYFKVDHADGLKYIPMDERYSPSSLARLFTMGMAGLHITTEPSYKRVPIMHLAADLDCMTLALPYMITLDGDTVVPVAPTLSAEQLLDDGLKGLACMDISYGCEVDANSRPAGDQSMDSSRCINELYCEETAEAICVLKTCLVLNCMQFKLEMDDLAHNAAELDKIQMMIPFSERVFRMASSFATIDAQCFRFCVMMKDKNLKIDMRETTRLWTRSASDDSVATSSLSISLDRGRWVAADASDARLLVFPIRV
modifications: [35S]methionine-labelled
notes: nonstructural protein σNS of mammalian orthoreovirus (reovirus) strain T3D, S3 gene; same plasmid as m1, expressed in reticulocyte lysate; also called WT σNS; source: in vitro translated (TNT T7 polymerase-coupled rabbit reticulocyte lysate), not purified
B2: σNS R6A, in vitro expressed (natural protein)
chain: MASSLAAAISKIKRDDVGQQVCPNYVMLRSSVTTKVVRNVVEYQIRTGGFFSCLAMLRPLQYAKRERLLGQRNLERISTRDILQTRDLHSLCMPTPDAPMSNHQASTMRELICSYFKVDHADGLKYIPMDERYSPSSLARLFTMGMAGLHITTEPSYKRVPIMHLAADLDCMTLALPYMITLDGDTVVPVAPTLSAEQLLDDGLKGLACMDISYGCEVDANSRPAGDQSMDSSRCINELYCEETAEAICVLKTCLVLNCMQFKLEMDDLAHNAAELDKIQMMIPFSERVFRMASSFATIDAQCFRFCVMMKDKNLKIDMRETTRLWTRSASDDSVATSSLSISLDRGRWVAADASDARLLVFPIRV
modifications: [35S]methionine-labelled
notes: nonstructural protein σNS of mammalian orthoreovirus (reovirus) strain T3D, S3 gene; same plasmid as m2; also called R6A σNS; source: in vitro translated (TNT T7 polymerase-coupled rabbit reticulocyte lysate), not purified
B3: σNS K11A, in vitro expressed (natural protein)
chain: MASSLRAAISAIKRDDVGQQVCPNYVMLRSSVTTKVVRNVVEYQIRTGGFFSCLAMLRPLQYAKRERLLGQRNLERISTRDILQTRDLHSLCMPTPDAPMSNHQASTMRELICSYFKVDHADGLKYIPMDERYSPSSLARLFTMGMAGLHITTEPSYKRVPIMHLAADLDCMTLALPYMITLDGDTVVPVAPTLSAEQLLDDGLKGLACMDISYGCEVDANSRPAGDQSMDSSRCINELYCEETAEAICVLKTCLVLNCMQFKLEMDDLAHNAAELDKIQMMIPFSERVFRMASSFATIDAQCFRFCVMMKDKNLKIDMRETTRLWTRSASDDSVATSSLSISLDRGRWVAADASDARLLVFPIRV
modifications: [35S]methionine-labelled
notes: nonstructural protein σNS of mammalian orthoreovirus (reovirus) strain T3D, S3 gene; same plasmid as m3; also called K11A σNS; source: in vitro translated (TNT T7 polymerase-coupled rabbit reticulocyte lysate), not purified
B4: σNS R14A, in vitro expressed (natural protein)
chain: MASSLRAAISKIKADDVGQQVCPNYVMLRSSVTTKVVRNVVEYQIRTGGFFSCLAMLRPLQYAKRERLLGQRNLERISTRDILQTRDLHSLCMPTPDAPMSNHQASTMRELICSYFKVDHADGLKYIPMDERYSPSSLARLFTMGMAGLHITTEPSYKRVPIMHLAADLDCMTLALPYMITLDGDTVVPVAPTLSAEQLLDDGLKGLACMDISYGCEVDANSRPAGDQSMDSSRCINELYCEETAEAICVLKTCLVLNCMQFKLEMDDLAHNAAELDKIQMMIPFSERVFRMASSFATIDAQCFRFCVMMKDKNLKIDMRETTRLWTRSASDDSVATSSLSISLDRGRWVAADASDARLLVFPIRV
modifications: [35S]methionine-labelled
notes: nonstructural protein σNS of mammalian orthoreovirus (reovirus) strain T3D, S3 gene; same plasmid as m4; also called R14A σNS; source: in vitro translated (TNT T7 polymerase-coupled rabbit reticulocyte lysate), not purified
B5: σNS K35A, in vitro expressed (natural protein)
chain: MASSLRAAISKIKRDDVGQQVCPNYVMLRSSVTTAVVRNVVEYQIRTGGFFSCLAMLRPLQYAKRERLLGQRNLERISTRDILQTRDLHSLCMPTPDAPMSNHQASTMRELICSYFKVDHADGLKYIPMDERYSPSSLARLFTMGMAGLHITTEPSYKRVPIMHLAADLDCMTLALPYMITLDGDTVVPVAPTLSAEQLLDDGLKGLACMDISYGCEVDANSRPAGDQSMDSSRCINELYCEETAEAICVLKTCLVLNCMQFKLEMDDLAHNAAELDKIQMMIPFSERVFRMASSFATIDAQCFRFCVMMKDKNLKIDMRETTRLWTRSASDDSVATSSLSISLDRGRWVAADASDARLLVFPIRV
modifications: [35S]methionine-labelled
notes: nonstructural protein σNS of mammalian orthoreovirus (reovirus) strain T3D, S3 gene; same plasmid as m8; also called K35A σNS; source: in vitro translated (TNT T7 polymerase-coupled rabbit reticulocyte lysate), not purified
B6: σNS Y25A, in vitro expressed (natural protein)
chain: MASSLRAAISKIKRDDVGQQVCPNAVMLRSSVTTKVVRNVVEYQIRTGGFFSCLAMLRPLQYAKRERLLGQRNLERISTRDILQTRDLHSLCMPTPDAPMSNHQASTMRELICSYFKVDHADGLKYIPMDERYSPSSLARLFTMGMAGLHITTEPSYKRVPIMHLAADLDCMTLALPYMITLDGDTVVPVAPTLSAEQLLDDGLKGLACMDISYGCEVDANSRPAGDQSMDSSRCINELYCEETAEAICVLKTCLVLNCMQFKLEMDDLAHNAAELDKIQMMIPFSERVFRMASSFATIDAQCFRFCVMMKDKNLKIDMRETTRLWTRSASDDSVATSSLSISLDRGRWVAADASDARLLVFPIRV
modifications: [35S]methionine-labelled
notes: nonstructural protein σNS of mammalian orthoreovirus (reovirus) strain T3D, S3 gene; same plasmid as m6; also called Y25A σNS; source: in vitro translated (TNT T7 polymerase-coupled rabbit reticulocyte lysate), not purified
B7: σNS R29A, in vitro expressed (natural protein)
chain: MASSLRAAISKIKRDDVGQQVCPNYVMLASSVTTKVVRNVVEYQIRTGGFFSCLAMLRPLQYAKRERLLGQRNLERISTRDILQTRDLHSLCMPTPDAPMSNHQASTMRELICSYFKVDHADGLKYIPMDERYSPSSLARLFTMGMAGLHITTEPSYKRVPIMHLAADLDCMTLALPYMITLDGDTVVPVAPTLSAEQLLDDGLKGLACMDISYGCEVDANSRPAGDQSMDSSRCINELYCEETAEAICVLKTCLVLNCMQFKLEMDDLAHNAAELDKIQMMIPFSERVFRMASSFATIDAQCFRFCVMMKDKNLKIDMRETTRLWTRSASDDSVATSSLSISLDRGRWVAADASDARLLVFPIRV
modifications: [35S]methionine-labelled
notes: nonstructural protein σNS of mammalian orthoreovirus (reovirus) strain T3D, S3 gene; same plasmid as m7; also called R29A σNS; source: in vitro translated (TNT T7 polymerase-coupled rabbit reticulocyte lysate), not purified
B8: σNS R38A, in vitro expressed (natural protein)
chain: MASSLRAAISKIKRDDVGQQVCPNYVMLRSSVTTKVVANVVEYQIRTGGFFSCLAMLRPLQYAKRERLLGQRNLERISTRDILQTRDLHSLCMPTPDAPMSNHQASTMRELICSYFKVDHADGLKYIPMDERYSPSSLARLFTMGMAGLHITTEPSYKRVPIMHLAADLDCMTLALPYMITLDGDTVVPVAPTLSAEQLLDDGLKGLACMDISYGCEVDANSRPAGDQSMDSSRCINELYCEETAEAICVLKTCLVLNCMQFKLEMDDLAHNAAELDKIQMMIPFSERVFRMASSFATIDAQCFRFCVMMKDKNLKIDMRETTRLWTRSASDDSVATSSLSISLDRGRWVAADASDARLLVFPIRV
modifications: [35S]methionine-labelled
notes: nonstructural protein σNS of mammalian orthoreovirus (reovirus) strain T3D, S3 gene; same plasmid as m9; also called R38A σNS; source: in vitro translated (TNT T7 polymerase-coupled rabbit reticulocyte lysate), not purified
B9: σNS TriA (K11A, K13A, and R14A), in vitro expressed (natural protein)
chain: MASSLRAAISAIAADDVGQQVCPNYVMLRSSVTTKVVRNVVEYQIRTGGFFSCLAMLRPLQYAKRERLLGQRNLERISTRDILQTRDLHSLCMPTPDAPMSNHQASTMRELICSYFKVDHADGLKYIPMDERYSPSSLARLFTMGMAGLHITTEPSYKRVPIMHLAADLDCMTLALPYMITLDGDTVVPVAPTLSAEQLLDDGLKGLACMDISYGCEVDANSRPAGDQSMDSSRCINELYCEETAEAICVLKTCLVLNCMQFKLEMDDLAHNAAELDKIQMMIPFSERVFRMASSFATIDAQCFRFCVMMKDKNLKIDMRETTRLWTRSASDDSVATSSLSISLDRGRWVAADASDARLLVFPIRV
modifications: [35S]methionine-labelled
notes: nonstructural protein σNS of mammalian orthoreovirus (reovirus) strain T3D, S3 gene; same plasmid as m5; also called TriA σNS; source: in vitro translated (TNT T7 polymerase-coupled rabbit reticulocyte lysate), not purified

Biological target: the molecule itself
Assay: native gel or EMSA; 35S-labelled σNS expressed in rabbit reticulocyte lysate, incubated without RNase A (125 mM NaCl) at 37°C for 1 h; blue native PAGE, 4-16% bis-Tris, 4°C; autoradiography; RNA of the lysate present, the ladders of oligomers are RNA-dependent
With B1 the “stoichiometry N” value was at least 6.
With B2 the “stoichiometry N” value was 2.
With B3 the “stoichiometry N” value was 2.
In the case of B4, the “stoichiometry N” value is reported as 2.
With B5 the “stoichiometry N” value was 2.
For B6, the “stoichiometry N” value was 2.
B7 was tested, and the “stoichiometry N” value was 2.
In the case of B8, the “stoichiometry N” value is reported as 2.
In the case of B9, the “stoichiometry N” value is reported as 2.

Biological target: the molecule itself
Assay: native gel or EMSA; 35S-labelled σNS expressed in rabbit reticulocyte lysate, incubated with 10 μg RNase A at 37°C for 1 h; blue native PAGE, 4-16% bis-Tris, 4°C; autoradiography
In the case of B1, the “stoichiometry N” value is reported as 2.
